{
  "source": "patent US20250035634A1",
  "about": "“A METHOD FOR DETECTING CLUSTERING OF RAS PROTEIN” (Nanyang Technological University, priority 2021, published 2025)",
  "molecules": {"B1": {"name": "EGF: Epidermal Growth Factor used to activate wild-type K-Ras in cells (protein, UniProt P01133 23-1207, looked up)", "Pro-epidermal growth factor": "PQHWSCPEGTLAGNGNSTCVGPAPFLIFSHGNSIFRIDTEGTNYEQLVVDAGVSVIMDFHYNEKRIYWVDLERQLLQRVFLNGSRQERVCNIEKNVSGMAINWINEEVIWSNQQEGIITVTDMKGNNSHILLSALKYPANVAVDPVERFIFWSSEVAGSLYRADLDGVGVKALLETSEKITAVSLDVLDKRLFWIQYNREGSNSLICSCDYDGGSVHISKHPTQHNLFAMSLFGDRIFYSTWKMKTIWIANKHTGKDMVRINLHSSFVPLGELKVVHPLAQPKAEDDTWEPEQKLCKLRKGNCSSTVCGQDLQSHLCMCAEGYALSRDRKYCEDVNECAFWNHGCTLGCKNTPGSYYCTCPVGFVLLPDGKRCHQLVSCPRNVSECSHDCVLTSEGPLCFCPEGSVLERDGKTCSGCSSPDNGGCSQLCVPLSPVSWECDCFPGYDLQLDEKSCAASGPQPFLLFANSQDIRHMHFDGTDYGTLLSQQMGMVYALDHDPVENKIYFAHTALKWIERANMDGSQRERLIEEGVDVPEGLAVDWIGRRFYWTDRGKSLIGRSDLNGKRSKIITKENISQPRGIAVHPMAKRLFWTDTGINPRIESSSLQGLGRLVIASSDLIWPSGITIDFLTDKLYWCDAKQSVIEMANLDGSKRRRLTQNDVGHPFAVAVFEDYVWFSDWAMPSVMRVNKRTGKDRVRLQGSMLKPSSLVVVHPLAKPGADPCLYQNGGCEHICKKRLGTAWCSCREGFMKASDGKTCLALDGHQLLAGGEVDLKNQVTPLDILSKTRVSEDNITESQHMLVAEIMVSDQDDCAPVGCSMYARCISEGEDATCQCLKGFAGDGKLCSDIDECEMGVPVCPPASSKCINTEGGYVCRCSEGYQGDGIHCLDIDECQLGEHSCGENASCTNTEGGYTCMCAGRLSEPGLICPDSTPPPHLREDDHHYSVRNSDSECPLSHDGYCLHDGVCMYIEALDKYACNCVVGYIGERCQYRDLKWWELRHAGHGQQQKVIVVAVCVVVLVMLLLLSLWGAHYYRTQKLLSKNPKNPYEESSRDVRSRRPADTEDGMSSCPQPWFVVIKEHQDLKNGGQPVAGEDGQAADGSMQPTSWRQEPQLCGMGTEQGCWIPVSSDKGSCPQVMERSFHMPSYGTQTLEGGVEKPHSLLSANPLWQQRALDPPHQMELTQ", "modifications": "Pro-epidermal growth factor"}},
  "tested_on": "KRasWT",
  "experiment": "nanobar-guided KRasWT clustering upon EGF activation in U2OS cells",
  "assay_type": "cell-based",
  "conditions": "EGF 100 ng/ml, 1 hr, mean±s.e.m.",
  "procedure": "Cell imaging is performed with laser scanning confocal microscopy (Zeiss LSM 800 with Airyscan) and a Plan-Apochromat 100×/1.4 oil objective. EGFP is excited at 488 nm and detected at 490-570 nm. RFP is excited at 561 nm and detected at 570-645 nm. Images were taken with a resolution of 512×512 pixels, 16-bit and 124 nm pixel size. A scanning speed of 20 s/image and an averaging mode of 4 times/line can be applied. During imaging, the cells are maintained in live cell imaging solution (Thermo Fisher) at 37° C. in an on-stage incubator. […] The images are conducted with a single snap shot for display of Ras variants and the quantification. For the imaging of co-expressed K-Ras variants and CRaf-RBD, z-stack images can be taken and averaged for display and the intensity profiles. […]\nTo quantify the nanobar-guided clustering of Ras variants, the fluorescence intensity ratio at the nanobar end to the flat sidewall (i.e. Enrichment Index, EI) is calculated. […] Next, the nanobars covered by the cell to be analyzed are identified by a custom-written MATLAB (MathWorks) code. […] To minimize the possible human bias, all the parameters for the calculation and the sorting criteria for data validation have been kept consistent throughout the entire quantification process. After the data validation, the remaining data points are ready for plotting. […]",
  "data": [
    {"molecule": "B1", "values": [
      {"measurement": "Enrichment Index (EI) of KRasWT", "result": "1.89 ± 0.042"}
    ]}
  ]
}
